Columns and labels:
Assay in all cases: filter
[1] = system: T1, VEGF-165 (Homo sapiens), P15692-4
T1 sequence: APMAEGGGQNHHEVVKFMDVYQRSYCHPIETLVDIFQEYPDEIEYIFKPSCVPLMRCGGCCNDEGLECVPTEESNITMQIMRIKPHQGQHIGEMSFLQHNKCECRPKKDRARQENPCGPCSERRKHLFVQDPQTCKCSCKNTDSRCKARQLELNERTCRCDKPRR

[2] = system: T2, VEGF-121 (Homo sapiens), P15692-9
T2 sequence: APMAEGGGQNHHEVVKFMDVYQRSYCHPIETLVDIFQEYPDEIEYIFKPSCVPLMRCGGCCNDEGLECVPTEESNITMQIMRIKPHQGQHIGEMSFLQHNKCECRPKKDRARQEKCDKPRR

[3] = molecular target: PDGF-BB (platelet-derived growth factor BB) (Homo sapiens) (UniProt P01127)
Sequence of PDGF-BB (platelet-derived growth factor BB) (Homo sapiens) (P01127 82-190): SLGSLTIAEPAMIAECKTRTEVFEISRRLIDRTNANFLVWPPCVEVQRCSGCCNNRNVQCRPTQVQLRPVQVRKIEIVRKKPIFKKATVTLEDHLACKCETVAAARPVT

[4] = system: T3, VEGF-164 (Rattus norvegicus), P16612-2; conditions: P=Nap-dU
T3 sequence: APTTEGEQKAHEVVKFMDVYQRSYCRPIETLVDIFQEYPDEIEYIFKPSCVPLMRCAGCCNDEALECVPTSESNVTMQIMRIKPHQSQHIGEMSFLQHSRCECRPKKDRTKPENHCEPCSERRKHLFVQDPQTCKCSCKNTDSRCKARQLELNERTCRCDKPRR

[5] = Nap-dU, Bn-dU, MBn-dU, 2'-OMe, C3, 5 Heg between parts
[6] = Nap-dU, Bn-dU, MBn-dU, 2'-OMe, C3, 6 Heg between parts
[7] = PDGF-VEGF, no Heg linker, NapdU, BndU
[8] = Bn-dU, MBn-dU, Nap-dU, 2'-OMe, C3, 2 Heg between parts
[9] = Bn-dU, MBn-dU, Nap-dU, 2'-OMe, C3, 4 Heg between parts
[10] = Bn-dU, MBn-dU, Nap-dU, 2'-OMe, C3, 5 Heg between parts
[11] = Bn-dU, MBn-dU, Nap-dU, 2'-OMe, C3, 6 Heg between parts

CCGTTCAAGTGCTTGTAGGATTTAAATGGTTACGTTACCGCGTTTATAGCG [4149-8_412]
Kd [1, 5]: 45 pM
Kd [2, 5]: 20 pM
Kd [3, 5]: 8.6 pM

CCGTTCAAGTGCTTGTAGGATTTAAATGGTTACGTTACCGCGTTTATAGCG [4149-8_413]
Kd [1, 6]: 63 pM
Kd [2, 6]: 40 pM
Kd [3, 6]: 10 pM

CCGTTCAAGTGCTTTAGATTTAAATGG [4867-31_186]
Kd ([2]; NapdU at P, C3 spacer 15,18, 2'-OMe 1,6,9,12,17,25,28,29): 1600 pM

CCGTTCAAGTGCTTTAGGATTTAAATGG [4867-31_187]
Kd ([2]; 2'-OMe G9,A17, C3 spacer at 15, all P are NapdU, target taken as VEGF-121): 32 pM

CCGTTCAAGTGCTTTAGGATTTAAATGG [4867-31_188]
Kd ([2]; NapdU at P, C3 spacer 15, 2'-OMe 9,17,18,28,29 as printed): 38 pM

CCGTTCAAGTGCTTTAGGATTTAAATGG [4867-31_189]
Kd ([2]; NapdU at P, C3 spacer 15, 2'-OMe 9,17,18,25,28,29 as printed): 900 pM

CCGTTCAAGTGCTTTAGGATTTAAATGG [4867-31_190]
Kd ([2]; NapdU at P, C3 spacer 15, 2'-OMe 9,17,18,22,28,29 as printed): 89 pM

CCGTTCAAGTGCTTTTAGGATTTAAATGGA [4867-31_150]
Kd ([2]; P=Nap-dU): 240 pM

CCGTTGAAGTGCTTGTAGGATTTAAATGGA [4867-31_146]
Kd ([2]; P=Nap-dU): 5980 pM

CCGTTTAAGTGCTTGTAGGATTTAAATGGA [4867-31_147]
Kd ([2]; P=Nap-dU): 3280 pM

CCTCCATCAGCCGTTCAAGTGCTTGTAGGATTTAAATGGAATTGGAGGA [4867-15_24]
Kd ([2]; P=Nap-dU, C3 spacer at 1): 110 pM

CCTCCATCAGCCGTTCAAGTGCTTGTAGGATTTAAATGGAATTGGAGGA [4867-15_25]
Kd ([2]; P=Nap-dU, C3 spacer at 2): 130 pM

CCTCCATCAGCCGTTCAAGTGCTTGTAGGATTTAAATGGAATTGGAGGA [4867-15_26]
Kd ([2]; P=Nap-dU, C3 spacer at 3): 200 pM

CGACAGCATGTATGCACATCTCCGTTCAAGTGCTTGTAGGATTTAAATGG [5169-4_99]
Kd ([2]; PDGF-6Heg-VEGF, NapdU, 2'-OMe): 120 pM
Kd ([3]; PDGF-6Heg-VEGF, NapdU, 2'-OMe): 2.1 pM

CGACAGCATGTATGCACATCTCCGTTCAAGTGCTTGTAGGATTTAAATGG [5169-4_100]
Kd ([2]; PDGF-5Heg-VEGF, NapdU, 2'-OMe): 56 pM
Kd ([3]; PDGF-5Heg-VEGF, NapdU, 2'-OMe): 1.5 pM

CGACAGCATGTATGCACATCTCCGTTCAAGTGCTTGTAGGATTTAAATGG [5169-4_101]
Kd ([2]; PDGF-4Heg-VEGF, NapdU, 2'-OMe): 130 pM

CGACAGCATGTATGCACATCTCCGTTCAAGTGCTTGTAGGATTTAAATGG [5169-4_102]
Kd ([2]; PDGF-3Heg-VEGF, NapdU, 2'-OMe): 140 pM
Kd ([3]; PDGF-3Heg-VEGF, NapdU, 2'-OMe): 11 pM

CGACAGCATGTATGCACATCTCCGTTCAAGTGCTTGTAGGATTTAAATGG [5169-4_103]
Kd ([2]; PDGF-2Heg-VEGF, NapdU, 2'-OMe): 120 pM
Kd ([3]; PDGF-2Heg-VEGF, NapdU, 2'-OMe): 6.1 pM

CGACAGCATGTATGCACATCTCCGTTCAAGTGCTTGTAGGATTTAAATGG [5169-4_104]
Kd ([2]; PDGF-1Heg-VEGF, NapdU, 2'-OMe): 280 pM
Kd ([3]; PDGF-1Heg-VEGF, NapdU, 2'-OMe): 4.6 pM

CGTTCAAGTGCTTGTAGGATTTAAATGGA [4867-31_60]
Kd ([1]; NapdU at P): 610 pM
Kd ([2]; NapdU at P): 2200 pM
Kd [4]: 1400 pM

GCCGTTCAAGTGCTTGTAGGATTTAAATGG [4867-31_144]
Kd ([2]; NapdU at P): 200 pM

TCAGCCGTTCAAGTGCTTGTAGGATTTAAATGGAA [4867-31_35]
Kd ([1]; P=Nap-dU): 110 pM
Kd [4]: 50 pM

TTACGTTACACGCGTTTATAGCGCCGTTCAAGTGCTTTAGATTTAAATG [4149-8_317]
Kd [2, 7]: 80.9 pM
Kd [3, 7]: 63.8 pM

TTACGTTACCGCGTTTATAGCGCCGTTCAAGTGCTTGTAGGATTTAAATGG [4149-8_401]
Kd ([2]; PDGF_379-3Heg-VEGF_192, NapdU, BndU, MBndU, 2'-OMe, 5' amino linker): 27 pM

TTACGTTACCGCGTTTATAGCGCCGTTCAAGTGCTTGTAGGATTTAAATGG [4149-8_414]
Kd [1, 8]: 51 pM
Kd [2, 8]: 23 pM
Kd [3, 8]: 10 pM

TTACGTTACCGCGTTTATAGCGCCGTTCAAGTGCTTGTAGGATTTAAATGG [4149-8_415]
Kd [1, 9]: 30 pM
Kd [2, 9]: 40 pM
Kd [3, 9]: 8.1 pM

TTACGTTACCGCGTTTATAGCGCCGTTCAAGTGCTTGTAGGATTTAAATGG [4149-8_416]
Kd [1, 10]: 30 pM
Kd [2, 10]: 41 pM
Kd [3, 10]: 8.9 pM

TTACGTTACCGCGTTTATAGCGCCGTTCAAGTGCTTGTAGGATTTAAATGG [4149-8_417]
Kd [1, 11]: 65 pM
Kd [2, 11]: 43 pM
Kd [3, 11]: 11 pM

— US20160177307
